Assays:
[1] = target: human GAL9 of the human PBMC cultures (human); assay: cell-based or functional assay
[2] = target: human GAL9 of the human PBMC cultures (human); assay: cell-based or functional assay; remark: listed apart in the source
[3] = target: Human GAL9 protein (Acro Biosystems, Human Gal9 His-tag Cat #LG9-H5244) (human); assay: Octet BLI, IgG1 immobilised on biosensor, GAL9 analyte dilution series, global fit (monovalent affinity)
Sequence of Human GAL9 protein (Acro Biosystems, Human Gal9 His-tag Cat #LG9-H5244) (human) (chain, as listed by the source): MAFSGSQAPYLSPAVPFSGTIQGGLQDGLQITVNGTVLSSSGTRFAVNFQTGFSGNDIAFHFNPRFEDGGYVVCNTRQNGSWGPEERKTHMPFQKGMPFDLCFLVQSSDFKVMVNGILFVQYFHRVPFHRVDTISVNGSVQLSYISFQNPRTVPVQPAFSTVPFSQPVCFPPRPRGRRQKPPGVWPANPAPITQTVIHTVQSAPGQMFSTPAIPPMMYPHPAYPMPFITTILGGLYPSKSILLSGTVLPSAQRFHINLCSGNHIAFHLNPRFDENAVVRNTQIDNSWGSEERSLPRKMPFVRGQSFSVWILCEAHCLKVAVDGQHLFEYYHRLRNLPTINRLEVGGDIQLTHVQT

| Binder | INF-γ 72 hr, Fold change, Average [1] [fold] | INF-γ 72 hr, Fold change, Donor 19 [1] [fold] | INF-γ 72 hr, Fold change, Donor 25 [1] [fold] | INF-γ 72 hr, Fold change, Donor 27 [1] [fold] | INF-γ 72 hr, Fold change, as % [1] [%] | INF-γ 72 hr, pg/ml, Donor 19 (HCMV-peptide stimulated PBMCs) [1] [pg/mL] | INF-γ 72 hr, pg/ml, Donor 25 (HCMV-peptide stimulated PBMCs) [1] [pg/mL] | INF-γ 72 hr, pg/ml, Donor 27 (HCMV-peptide stimulated PBMCs) [1] [pg/mL] | TNF-α 72 hr, Fold change, Average [2] [fold] | TNF-α 72 hr, Fold change, Donor 19 [2] [fold] | TNF-α 72 hr, Fold change, Donor 25 [2] [fold] | TNF-α 72 hr, Fold change, Donor 27 [2] [fold] | TNF-α 72 hr, Fold change, as % [2] [%] | TNF-α 72 hr, pg/ml, Donor 19 (HCMV-peptide stimulated PBMCs) [2] [pg/mL] | TNF-α 72 hr, pg/ml, Donor 25 (HCMV-peptide stimulated PBMCs) [2] [pg/mL] | TNF-α 72 hr, pg/ml, Donor 27 (HCMV-peptide stimulated PBMCs) [2] [pg/mL] | Kd [3] [nM] |
| --- | --- | --- | --- | --- | --- | --- | --- | --- | --- | --- | --- | --- | --- | --- | --- | --- | --- |
| P9-11 (antibody, IgG1, V domains shown, Tested as bivalent monospecific native human full-length IgG1; also called ABS clone P9-11) VH: EVQLVESGGGLVQPGGSLRLSCAASGFTFSSYYIHWVRQAPGKGLEWVAYISPSGGYTYYADSVKGRFTISADTSKNTAYLQMNSLRAEDTAVYYCARGAVLYSSAMDYWGQGTLVTVSS VL: DIQMTQSPSSLSASVGDRVTITCRASQSVSSAVAWYQQKPGKAPKLLIYSASSLYSGVPSRFSGSRSGTDFTLTISSLQPEDFATYYCQQYYPSPSTFGQGTKVEIKR | 0.68 | 0.99 | 0.52 | 0.53 | 68.2 | 5890 | 23000 | 891 | 0.64 | 0.78 | 0.76 | 0.4 | 64.7 | 607 | 982 | 374 | 6.55 |
| P9-24 (antibody, IgG1, V domains shown, Tested as bivalent monospecific native human full-length IgG1; also called ABS clone P9-24) VH: EVQLVESGGGLVQPGGSLRLSCAASGFTFSSYFIHWVRQAPGKGLEWVASIYPTSHSTSYADSVKGRFTISADTSKNTAYLQMNSLRAEDTAVYYCARLGYPGVMDYWGQGTLVTVSS VL: DIQMTQSPSSLSASVGDRVTITCRASQSVSSAVAWYQQKPGKAPKLLIYSASSLYSGVPSRFSGSRSGTDFTLTISSLQPEDFATYYCQQVDSRLATFGQGTKVEIKR | 0.8 |  | 0.82 | 0.78 | 87.6 |  | 35700 | 1260 | 0.54 |  | 0.75 | 0.32 | 53.5 |  | 962 | 299 | 5.41 |
| P9-25 (antibody, IgG1, V domains shown, Tested as bivalent monospecific native human full-length IgG1; also called ABS clone P9-25) VH: EVQLVESGGGLVQPGGSLRLSCAASGFTFSSYYIHWVRQAPGKGLEWVASIYPYGSYTYYADSVKGRFTISADTSKNTAYLQMNSLRAEDTAVYYCARLGYSSGMDYWGQGTLVTVSS VL: DIQMTQSPSSLSASVGDRVTITCRASQSVSSAVAWYQQKPGKAPKLLIYSASSLYSGVPSRFSGSRSGTDFTLTISSLQPEDFATYYCQQWAPDLTTFGQGTKVEIKR |  |  |  |  |  |  |  |  |  |  |  |  |  |  |  |  | 3.48 |
| P9-34 (antibody, IgG1, V domains shown) VH: EVQLVESGGGLVQPGGSLRLSCAASGFTFSTYFIHWVRQAPGKGLEWVAYIYPQGGYTYYADSVKGRFTISADTSKNTAYLQMNSLRAEDTAVYYCARQSYPGVFDYWGQGTLVTVSS VL: DIQMTQSPSSLSASVGDRVTITCRASQSVSSAVAWYQQKPGKAPKLLIYSASSLYSGVPSRFSGSRSGTDFTLTISSLQPEDFATYYCQQWTIALTTFGQGTKVEIKR | 0.88 |  | 1.01 | 0.74 | 87.6 |  | 44400 | 1050 | 0.74 |  | 0.68 | 0.79 | 73.7 |  | 874 | 596 |  |
| P9-37 (antibody, IgG1, V domains shown, Tested as bivalent monospecific native human full-length IgG1; also called ABS clone P9-37) VH: EVQLVESGGGLVQPGGSLRLSCAASGFTFWKYGIHWVRQAPGKGLEWVAYIYPAGGITSYADSVKGRFTISADTSKNTAYLQMNSLRAEDTAVYYCARSDYYSGMGMDYWGQGTLVTVSS VL: DIQMTQSPSSLSASVGDRVTITCRASQSVSSAVAWYQQKPGKAPKLLIYSASSLYSGVPSRFSGSRSGTDFTLTISSLQPEDFATYYCQQYYPSPSTFGQGTKVEIKR | 0.55 | 0.55 |  |  | 54.6 | 3230 |  |  | 0.55 | 0.55 |  |  | 55.2 | 429 |  |  | 4.54 |

Other lines, results leading:

| INF-γ 72 hr, Fold change, Average [1] [fold] | INF-γ 72 hr, Fold change, Donor 19 [1] [fold] | INF-γ 72 hr, Fold change, Donor 25 [1] [fold] | INF-γ 72 hr, Fold change, Donor 27 [1] [fold] | INF-γ 72 hr, Fold change, as % [1] [%] | INF-γ 72 hr, pg/ml, Donor 19 (HCMV-peptide stimulated PBMCs) [1] [pg/mL] | INF-γ 72 hr, pg/ml, Donor 25 (HCMV-peptide stimulated PBMCs) [1] [pg/mL] | INF-γ 72 hr, pg/ml, Donor 27 (HCMV-peptide stimulated PBMCs) [1] [pg/mL] | TNF-α 72 hr, Fold change, Average [2] [fold] | TNF-α 72 hr, Fold change, Donor 19 [2] [fold] | TNF-α 72 hr, Fold change, Donor 25 [2] [fold] | TNF-α 72 hr, Fold change, Donor 27 [2] [fold] | TNF-α 72 hr, Fold change, as % [2] [%] | TNF-α 72 hr, pg/ml, Donor 19 (HCMV-peptide stimulated PBMCs) [2] [pg/mL] | TNF-α 72 hr, pg/ml, Donor 25 (HCMV-peptide stimulated PBMCs) [2] [pg/mL] | TNF-α 72 hr, pg/ml, Donor 27 (HCMV-peptide stimulated PBMCs) [2] [pg/mL] | Kd [3] [nM] | Binder |
| --- | --- | --- | --- | --- | --- | --- | --- | --- | --- | --- | --- | --- | --- | --- | --- | --- | --- |
|  |  |  |  |  |  |  |  |  |  |  |  |  |  |  |  | 1.21 | P9-50 (antibody, IgG1, V domains shown, Tested as bivalent monospecific native human full-length IgG1; Heavy chain copied as printed: it ends 'SLSPG' without the last K; also called ABS clone P9-50) VH: EVQLVESGGGLVQPGGSLRLSCAASGFTFSSYVIHWVRQAPGKGLEWVALIYSSGGYTQYADSVKGRFTISADTSKNTAYLQMNSLRAEDTAVYYCARVGTTYPSRYLEALDYWGQGTLVTVSS VL: DIQMTQSPSSLSASVGDRVTITCRASQSVSSAVAWYQQKPGKAPKLLIYSASSLYSGVPSRFSGSRSGTDFTLTISSLQPEDFATYYCQQFGSSLPTFGQGTKVEIKR |
| 0.83 | 0.83 |  |  | 83.4 | 4940 |  |  | 0.54 | 0.54 |  |  | 53.7 | 417 |  |  | 2.56 | P9-57 (antibody, IgG1, V domains shown, Tested as bivalent monospecific native human full-length IgG1; also called ABS clone P9-57) VH: EVQLVESGGGLVQPGGSLRLSCAASGFTFSSYYIHWVRQAPGKGLEWVATIYPSGGYTYYADSVKGRFTISADTSKNTAYLQMNSLRAEDTAVYYCARYSYPGVLDYWGQGTLVTVSS VL: DIQMTQSPSSLSASVGDRVTITCRASQSVSSAVAWYQQKPGKAPKLLIYSASSLYSGVPSRFSGSRSGTDFTLTISSLQPEDFATYYCQQSSSFLWTFGQGTKVEIKR |

Source: US20220227873A1 (COUNCIL OF THE QUEENSLAND INSTITUTE OF MEDICAL RESEARCH, published 2022)
